In assay [1] the target is HLA-A*0201 heavy chain with β2-microglobulin. As to the kind of experiment: differential scanning fluorimetry. For orientation: Differential scanning fluorimetry follows unfolding on heating by fluorescence.
The target of assay [2] is HLA-DR1 (DRA*0101/DRB*010101), soluble extracellular domains (human).
Assay [3] shares this target. This is another data set of the same source.
Assay [4] has as its target HLA-A*0201 heavy chain with β2-microglobulin. As to the kind of experiment: circular dichroism. For orientation: Circular dichroism is the unequal absorption of left and right circularly polarised light.
Assay [5] addresses HLA-DR1 (DRA*0101/DRB*010101), soluble extracellular domains (human). As to the kind of experiment: differential scanning fluorimetry.

Where two headings read alike, the source gives them in different places.

Regarding NS3_(1406(7N)-1415) peptide, the apparent Tm by DSF in assay [1] came to 55.8 °C.
For the molecule influenza HA peptide, the apparent Tm by DSF in assay [2] turned out to be 82.1 °C; in assay [3], 83 °C.
Consider tyrosinase peptide (TYR), for which the apparent Tm by DSF in assay [1] is 67.3 °C.
SL9 peptide: the apparent Tm by DSF in assay [1] came out at 59 °C.

B1: gp100_(209(2M)-217) peptide (peptide)
peptide: IMDQVPFSV
In the case of B1, the apparent Tm by DSF in assay [1] amounted to 62.2 °C.

B2: HUD_(87(2L,9V)-95) peptide (peptide)
peptide: LLYGFVNYV
With B2, the apparent Tm by CD in assay [4] stood at 63 °C. In assay [1], the apparent Tm by DSF stood at 65.1 °C.

B3: TYR (T5F) peptide (peptide)
peptide: YMDGFMSQV
For B3, in assay [4], the apparent Tm by CD turned out to be 63 °C. Further, the apparent Tm by DSF in assay [1] turned out to be 61.4 °C.

B4: MART-1_(27(2L)-35) peptide (peptide)
peptide: ALGIGILTV
As to B4, the apparent Tm by CD in assay [4] is 51 °C. Further, in assay [1], the apparent Tm by DSF is 59.2 °C and the half-life of the complex (slowest phase, peptide dissociation) came to 6.9 h.

B5: HUD peptide (peptide)
peptide: LGYGFVNYI
As for B5, the apparent Tm by DSF in assay [1] was 44.8 °C.

B6: Min4 peptide (peptide)
peptide: YRAL
Take B6: the other in assay [5] was 67.8 °C.

The values above are taken from publication PMC4837003.
